Assay [1] concerns the target human angiotensin 2 type 1 receptor (human) (UniProt P30556). The experiment in a line: cell-based or functional assay.
The target of assay [2] is rat angiotensin 2 type 1 receptor (rat) (UniProt P25095). The experiment in a line: cell-based or functional assay.

Where only a bound is given, the exact number is not on record here.

Sequence of human angiotensin 2 type 1 receptor (human) (P30556 whole entry): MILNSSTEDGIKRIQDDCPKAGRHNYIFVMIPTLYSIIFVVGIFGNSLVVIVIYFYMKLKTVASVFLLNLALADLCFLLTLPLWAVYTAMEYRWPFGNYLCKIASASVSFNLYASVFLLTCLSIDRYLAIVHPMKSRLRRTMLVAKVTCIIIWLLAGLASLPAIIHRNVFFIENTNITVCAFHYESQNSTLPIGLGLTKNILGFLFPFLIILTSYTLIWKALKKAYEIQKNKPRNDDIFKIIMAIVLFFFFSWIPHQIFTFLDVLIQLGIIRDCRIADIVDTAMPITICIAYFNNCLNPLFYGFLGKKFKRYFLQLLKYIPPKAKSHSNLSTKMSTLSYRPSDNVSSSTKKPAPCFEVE
Sequence of rat angiotensin 2 type 1 receptor (rat) (P25095 whole entry): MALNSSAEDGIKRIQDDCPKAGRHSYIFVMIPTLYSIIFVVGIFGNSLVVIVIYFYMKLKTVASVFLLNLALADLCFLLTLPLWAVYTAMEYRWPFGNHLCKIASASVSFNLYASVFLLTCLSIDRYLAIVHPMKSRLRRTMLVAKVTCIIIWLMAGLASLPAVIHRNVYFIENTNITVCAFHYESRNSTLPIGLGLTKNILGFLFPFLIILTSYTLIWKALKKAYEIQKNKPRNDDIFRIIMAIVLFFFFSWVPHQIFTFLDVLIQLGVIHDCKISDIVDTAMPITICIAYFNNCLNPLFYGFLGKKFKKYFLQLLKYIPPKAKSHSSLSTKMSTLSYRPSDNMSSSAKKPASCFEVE

In assay [1], “SEQ ID NO: 2 (Sar-Arg-Val-Ile-Ile-His-Pro-Ile-NH2) (peptide)” displayed a b-arrestin2 Max of 24.9%. In addition, in assay [2], the IP One EC50 came out at 0.36 µM and the IP One Max came to 33.8%.
In assay [1], “SEQ ID NO: 3 (Sar-Arg-Val-Ile-Val-His-Pro-Ile-OH) (peptide)” registered an IP One EC50 of more than 10 µM, a b-arrestin2 EC50 of 0.45 µM and a b-arrestin2 Max of 36.5%. In assay [2], this molecule came in with an IP One EC50 of 0.041 µM, an IP One Max of 19.6%, a b-arrestin2 EC50 of 0.12 µM and a b-arrestin2 Max of 67.1%.
In assay [1], “SEQ ID NO: 29 (Sar-Arg-Val-OMTyr-Ile-His-Pro-Ala-OH) (peptide)” had an IP One EC50 of more than 10 µM, a b-arrestin2 EC50 of 0.59 µM and a b-arrestin2 Max of 43.3%. Besides, in assay [2], the IP One EC50 is more than 10 µM, the b-arrestin2 EC50 was 0.2 µM and the b-arrestin2 Max was found to be 64.8%.
Consider “SEQ ID NO: 66 (N-Me-Glu-Arg-Val-Tyr-Phe-His-Pro-NH2) (peptide)”, for which, in assay [1], the IP One EC50 is more than 10 µM, the b-arrestin2 EC50 was 6.7 µM and the b-arrestin2 Max is 30.6%. In addition, in assay [2], the IP One EC50 was more than 10 µM, the b-arrestin2 EC50 worked out at 10 µM and the b-arrestin2 Max was 58.5%.
For the molecule “SEQ ID NO: 10 (Sar-Arg-Val-Tyr-Ile-His-Pro-Ala-NH2) (peptide)”, in assay [2], the IP One Max was 13.3% and the b-arrestin2 Max came out at 60.3%.
In assay [1], “SEQ ID NO: 64 (Glu-Arg-Val-Tyr-Phe-His-Pro-NH2) (peptide)” showed an IP One EC50 of more than 10 µM, a b-arrestin2 EC50 of 1.2 µM and a b-arrestin2 Max of 20.4%. In assay [2], this molecule had an IP One EC50 of more than 10 µM, a b-arrestin2 EC50 of 0.87 µM and a b-arrestin2 Max of 26.9%.
In assay [1], “SEQ ID NO: 6 (Sar-Arg-Val-Gly-Val-His-Pro-Gly-NH2) (peptide)” yielded an IP One EC50 of 0.11 µM, an IP One Max of 14.1%, a b-arrestin2 EC50 of 0.92 µM and a b-arrestin2 Max of 12.1%. In assay [2], this molecule had an IP One EC50 of 0.059 µM, an IP One Max of 21.9% and a b-arrestin2 EC50 of more than 10 µM.
In assay [2], “SEQ ID NO: 9 (Sar-Arg-Val-Tyr-Ile-His-Pro-Ala-OH) (peptide)” had an IP One Max of 9.5% and a b-arrestin2 Max of 74%.
As to “SEQ ID NO: 30 (Sar-Arg-Val-Tyr-OMTh-His-Pro-Ala-OH) (peptide)”, in assay [1], the IP One EC50 is more than 10 µM, the b-arrestin2 EC50 was 0.0092 µM and the b-arrestin2 Max was 68.2%. Further, in assay [2], the IP One EC50 is more than 10 µM, the b-arrestin2 EC50 is 0.0082 µM and the b-arrestin2 Max was found to be 80.4%.
In assay [2], “SEQ ID NO: 27 (Sar-Arg-Val-Tyr-Ile-His-Pro-D-Ala-OH) (peptide)” came in with an IP One EC50 of more than 10 µM, a b-arrestin2 EC50 of 0.016 µM and a b-arrestin2 Max of 84.2%.
Consider “SEQ ID NO: 5 (Sar-Arg-Val-Gly-Val-His-Pro-Gly-OH) (peptide)”, for which, in assay [1], the IP One EC50 amounted to 0.065 µM, the IP One Max stood at 18.1%, the b-arrestin2 EC50 was 1.6 µM and the b-arrestin2 Max stood at 39.4%. In assay [2], this molecule returned an IP One EC50 of 0.096 µM, an IP One Max of 24.8%, a b-arrestin2 EC50 of 1.9 µM and a b-arrestin2 Max of 61.7%.
In assay [1], “SEQ ID NO: 84 (Sar-Arg-Val-Tyr-OMTh-His-Pro-D-Ala-OH) (peptide)” showed an IP One EC50 of more than 10 µM, a b-arrestin2 EC50 of 0.032 µM and a b-arrestin2 Max of 50.5%. In assay [2], this molecule returned an IP One EC50 of more than 10 µM, a b-arrestin2 EC50 of 0.016 µM and a b-arrestin2 Max of 80.6%.
Turning to “SEQ ID NO: 65 (N-Me-Asp-Arg-Val-Tyr-Phe-His-Pro-NH2) (peptide)”, in assay [1], the IP One EC50 is more than 10 µM, the b-arrestin2 EC50 stood at 2 µM and the b-arrestin2 Max stood at 37.8%. In assay [2], this molecule registered an IP One EC50 of more than 10 µM, a b-arrestin2 EC50 of 2.8 µM and a b-arrestin2 Max of 67.3%.
In assay [1], “SEQ ID NO: 44 (NMAla-Arg-Val-Tyr-Ile-His-Pro-D-Ala-OH) (peptide)” registered an IP One EC50 of more than 10 µM, a b-arrestin2 EC50 of 0.08 µM and a b-arrestin2 Max of 47.3%. In assay [2], this molecule yielded an IP One EC50 of 0.0082 µM, an IP One Max of 14.6%, a b-arrestin2 EC50 of 0.065 µM and a b-arrestin2 Max of 71.9%.
For “SEQ ID NO: 83 (Sar-Arg-Val-Tyr-NVA-His-Pro-D-Ala-OH) (peptide)”, in assay [1], the IP One EC50 is more than 10 µM, the b-arrestin2 EC50 was found to be 0.2 µM and the b-arrestin2 Max is 34.3%. Moreover, in assay [2], the IP One EC50 is more than 10 µM, the b-arrestin2 EC50 turned out to be 0.05 µM and the b-arrestin2 Max worked out at 70.2%.
Regarding “SEQ ID NO: 25 (Asp-Arg-Val-Tyr-Ile-His-Pro-Ala-OH) (peptide)”, in assay [1], the b-arrestin2 Max stood at 57.9%. In assay [2], this molecule came in with an IP One Max of 14.1% and a b-arrestin2 Max of 77%.
Turning to “SEQ ID NO: 82 (NM-D-Ala-Arg-Val-Tyr-Ile-His-Pro-D-Ala-OH) (peptide)”, in assay [1], the IP One EC50 is more than 10 µM, the b-arrestin2 EC50 was determined as 0.32 µM and the b-arrestin2 Max stood at 38.3%. Also, in assay [2], the IP One EC50 is more than 10 µM, the b-arrestin2 EC50 came out at 0.13 µM and the b-arrestin2 Max worked out at 60.6%.
In assay [1], “SEQ ID NO: 32 (Me2G-Arg-Val-Tyr-Ile-His-Pro-Ala-OH) (peptide)” gave a b-arrestin2 EC50 of 0.079 µM and a b-arrestin2 Max of 55.6%. Moreover, in assay [2], the IP One EC50 was determined as 0.024 µM, the IP One Max came to 6.8%, the b-arrestin2 EC50 came out at 0.043 µM and the b-arrestin2 Max was found to be 80.2%.
In assay [1], “SEQ ID NO: 8 (Sar-Arg-Val-Tyr-Val-His-Pro-Ala-NH2) (peptide)” had an IP One EC50 of more than 10 µM, a b-arrestin2 EC50 of 0.21 µM and a b-arrestin2 Max of 36.9%. In assay [2], this molecule came in with an IP One EC50 of 0.035 µM, an IP One Max of 11.3%, a b-arrestin2 EC50 of 0.2 µM and a b-arrestin2 Max of 41.8%.
With RVYYHPA (N-terminal Sar; C-terminal acid) [SEQ ID NO: 19 (Sar-Arg-Val-Tyr-Tyr-His-Pro-Ala-OH)], in assay [1], the IP One EC50 was more than 10 µM, the b-arrestin2 EC50 turned out to be 0.031 µM and the b-arrestin2 Max turned out to be 67.9%. In assay [2], this molecule gave an IP One EC50 of more than 10 µM, a b-arrestin2 EC50 of 0.018 µM and a b-arrestin2 Max of 91.2%.
In assay [1], RVYYHPI (N-terminal Sar; C-terminal amide) [SEQ ID NO: 15 (Sar-Arg-Val-Tyr-Tyr-His-Pro-Ile-NH2)] had an IP One EC50 of 0.25 µM, an IP One Max of 19.3%, a b-arrestin2 EC50 of 0.82 µM and a b-arrestin2 Max of 44.3%. Further, in assay [2], the IP One EC50 worked out at 0.077 µM, the IP One Max amounted to 51.1%, the b-arrestin2 EC50 worked out at 0.23 µM and the b-arrestin2 Max is 62.1%.
In assay [1], RVYEHPI (N-terminal Sar; C-terminal acid) [SEQ ID NO: 16 (Sar-Arg-Val-Tyr-Glu-His-Pro-Ile-OH)] displayed an IP One EC50 of more than 10 µM, a b-arrestin2 EC50 of 0.88 µM and a b-arrestin2 Max of 56.9%. In assay [2], this molecule yielded an IP One EC50 of 0.092 µM, an IP One Max of 24.4%, a b-arrestin2 EC50 of 0.14 µM and a b-arrestin2 Max of 76.9%.

Values taken from patent US20240025949A1, “Beta-Arrestin Effectors and Compositions and Methods of Use Thereof” (Trevena, Inc., priority 2021, published 2024).
